{
  "source": "paper PMC7717906",
  "about": "(eLife, 2020)",
  "proteins": {"B1": {"name": "MoOsm1-GFP (enzyme)", "chain": "MAEFVRAQIFGTTFEITSRYSDLQPVGMGAFGLVCSARDQLTNQNVAIKKIMKPFSTPVLAKRTYRELKLLKHLKHENVISLSDIFISPLEDIYFVTELLGTDLHRLLTSRPLEKQFIQYFLYQIMRGLKYVHSAGVVHRDLKPSNILVNENCDLKICDFGLARIQDPQMTGYVSTRYYRAPEIMLTWQKYDVEVDIWSAGCIFAEMLEGKPLFPGKDHVNQFSIITELLGTPPDDVINTIASENTLRFVKSLPKRERQPLKNKFKNADPSAIDLLERMLVFDPKKRITATEALAHEYLTPYHDPTDEPIAEEKFDWSFNDADLPVDTWKIMMYSEILDYHNAEAGMQQMDDQFTGQ"}},
  "target": "the molecule itself",
  "test": "native gel or EMSA",
  "data": [
    {"protein": "B1", "values": [
      {"measurement": "stoichiometry N", "result": 2}
    ]}
  ]
}
